US9850520B2, “Electrochemical detection of proteases using AC voltammetry on nanoelectrode arrays” (Kansas State University Research Foundation, priority 2013, dated 2017)

Target: T1, H2N—(CH2)4—CO-(SEQ ID NO:1)-NH—CH2-Fc (Homo sapiens, UniProt Q99538)
T1 construct: purchased R&D Systems Inc. (Minneapolis, Minn.)
T1 sequence (Q99538 18-323 limits assumed): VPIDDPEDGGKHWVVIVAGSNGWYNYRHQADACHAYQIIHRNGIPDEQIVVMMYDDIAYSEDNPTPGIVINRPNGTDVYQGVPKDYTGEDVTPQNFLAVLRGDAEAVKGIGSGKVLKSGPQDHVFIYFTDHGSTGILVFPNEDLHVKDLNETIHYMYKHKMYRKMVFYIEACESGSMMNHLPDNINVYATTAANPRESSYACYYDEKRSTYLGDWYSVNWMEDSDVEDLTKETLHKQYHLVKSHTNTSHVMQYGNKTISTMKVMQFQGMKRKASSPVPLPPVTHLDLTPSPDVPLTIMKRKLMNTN
Assay: ACV proteolysis kinetics of legumain on Fc-tetrapeptide immobilized on VACNF NEA
Format: biochemical
Description: In the protease study, a tetrapeptide H2N—(CH2)4—CO-(SEQ ID NO:1)-NH—CH2-Fc is covalently attached to the exposed tip of a VACNF NEA as shown in FIG. 2. Fc provides reliable redox signals at 0.25 V vs. Ag/AgCl (3M KCl) in ACV measurements. As shown in later sections, the unique structure of VACNF NEA enables the enhanced ACV signal at over 1750 Hz AC frequency. Upon being supplied with legumain (a cancer related protease), the peptide is cleaved at the site between Asn and Leu. As a result, the Fc moiety is released from the electrode surface into bulk solution, causing the redox signal to decrease. The kinetic of the enzymatic reaction at the electrode surface can be monitored by continuously repeated ACV measurements. The advantage of this method is that the Fc label provides a characteristic redox signal which can be easily separated from the nonFaradaic background and other redox signals. However, the mechanism becomes complicated for enzymes requiring much longer peptide sequences for specific recognition. The Fc signal involves electron transfer between Fc molecule and the electrode surface, which is highly sensitive to the Fc surface distance. This may vary in a large range depending on the molecular packing of the long peptides on the electrode surface.
For protease analysis, the tetrapeptide H2N—(CH2)4—CO-(SEQ ID NO:1)-NHCH2-Fc was covalently linked to the VACNF NEA by forming amide bond facilitated by EDC and sulfo-NHS. In order to stabilize the electronic signal, the electrode surface was reacted with 6-amino-1-hexanol to fill the remaining —COOH sites. […]
The electrochemical measurements were performed in a TEFLON cell with a total volume of 250 μL for legumain experiments and 120 μL for kinase/phosphatase experiments. […] The average AC current was measured as the potential was swept from −0.05 to +0.65 V at 10 mV/s scan rate using a staircase waveform. […]
The change in peak current (ip,acv) during continuously repeated ACV measurements with Fc-linked tetrapeptide immobilized on a VACNF NEA was measured. […]

[1] = Example 4, [E0]=80.1 nM legumain

time constant of exponential decay (Example 1, [E0]=773 nM legumain, f 1750 Hz, V0 150 mV): 1076 s
slope of reaction rate vi vs Γsurf [1]: 0.00063 s⁻¹
time constant of exponential decay [1]: 1101 s
B1: legumain: Recombinant human legumain/asparaginyl endopeptidase (molecular weight 49 kDa) from R&D Systems (protein, UniProt Q99538 18-323, looked up)
Legumain: T1 sequence (Q99538 18-323 limits assumed)
